In the series the test system is MS2 coat protein. The series can be described thus: apparent KD of MS2 coat protein; designed switch direction (-1 OFF switch, 1 ON switch): -1; higher = weaker reporter binding. The method, boiled down:
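Designed RNA switches with common flanks were made on Illumina chips by stalled E. coli RNA polymerase. Titration with SNAP-549-labelled MS2 coat protein doubled from 0.7 or 1.5 nM up to 3 µM. Apparent KD is each design's median over clusters after curve-fitting normalised fluorescence.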

The mark [1] stands for this setting: Eterna round: R95, input ligand: FMN 200 uM.
The mark [2] stands for this setting: Eterna round: R95, input ligand: microRNA oligo, concentration not stated.
[3] abbreviates: Eterna round: R95, input ligand: none.
Setting [4] is: input ligand: microRNA oligo, concentration not stated.

The record followed here is the supplement of paper PMC9170038.

With “AGUAGUAGUAUCCGAUCCUACAUGAGGAUCACCCAUGUAGGUAGACGUGCACGCGAUGCUCGUCAGACUACCAGAUG [salish99_TOv1_r3_039] (puzzle: Sensor v3, turn-off variant 1)”, the “apparent KD of MS2 coat protein” value came to 12.1 nM under setting [1], 11.4 nM under setting [2] and 13.4 nM under setting [3].

For “AGUAGUGGUAUCCGAUCCUACAUGAGGAUCACCCAUGUAGCUAGACGUGCACGCGAUGCUCGUCAGACUACCAGAUG [salish99_TOv1_r3_048] (puzzle: Sensor v3, turn-off variant 1)”, the “apparent KD of MS2 coat protein” value under setting [1] was 218 nM, the “apparent KD of MS2 coat protein” value under setting [2] is 221 nM and the “apparent KD of MS2 coat protein” value under setting [3] was determined as 184 nM.

Regarding “AGUAGUUCAGGAUAUGAUGUUAAGUACAUGAGGAUCACCCAUGUAGGUCCUGGAUUUACAUCAGAAGGGAAUAACU [JR_Ex5_Sub083] (Eterna round: R97, puzzle: Exclusion 5)”, the “apparent KD of MS2 coat protein” value (input ligand: FMN 200 uM) came out at 60.4 nM and the “apparent KD of MS2 coat protein” value (input ligand: none) came to 23.6 nM.

“AGUCAGGCGGUAGGAUAUCCAAACCGAGUGACCCUUUCAUAACAUGAGGAUCACCCAUGUCGGUGGGAGAAGGGCCGUAAGGCA [Mat - Exclusion NG 2 - Mod of JL - D66] (Eterna round: R96, puzzle: Exclusion NG 2)”: the “apparent KD of MS2 coat protein” value is, setting by setting: (input ligand: FMN 200 uM) 127 nM; under setting [4], 52.8 nM; (input ligand: none) 56.6 nM.

Take “AGUCAGGCGGUAGGAUAUCCAAAUCGAGUGACCCUCUCAUAACAUGAGGAUCACCCAUGUCGGUGGGAGAAGGGCCGUACGGCG [JL ViennaUCT Atra mod] (Eterna round: R96, puzzle: Exclusion NG 2)”: the “apparent KD of MS2 coat protein” value stood at 108 nM (input ligand: FMN 200 uM), 53.8 nM under setting [4] and 47.8 nM (input ligand: none).

On to “AGUCCGUCAGGAUAUGCAAUUGUGGACAUGAGGAUCACCCAUGUAACGUGGGCUUGGUUUGUAGAAGGGACGUGCA [EX5 #91] (Eterna round: R97, puzzle: Exclusion 5)”, for which the “apparent KD of MS2 coat protein” value runs as follows: (input ligand: FMN 200 uM) 351 nM; (input ligand: none) 442 nM.

Turning to “AGUCCUAACACGAAAGUGUUAGUACAAUAAGCUUGUGAAACAUGAGGAUCACCCAUGUCCUCAUAAGCUCGUCUUAU [salish99_TOv2_r3_015] (Eterna round: R96, puzzle: Sensor v3, turn-off variant 2)”, the “apparent KD of MS2 coat protein” value runs as follows: (input ligand: FMN 200 uM) 15.3 nM; under setting [4], 449 nM; (input ligand: none) 17.7 nM.

Turning to “AGUCCUAACACGAAAGUGUUAGUACAAUAAGCUUGUGAAACAUGAGGAUCACCCAUGUCCUCAUAAGCUCGUCUUAU [salish99_TOv2_r3_015] (puzzle: Sensor v3, turn-off variant 2)”, the “apparent KD of MS2 coat protein” value under setting [1] came to 16.6 nM, the “apparent KD of MS2 coat protein” value under setting [2] is 896 nM and the “apparent KD of MS2 coat protein” value under setting [3] came out at 16.9 nM.

As for “AGUCCUGGAGUUAGGAUAUGAAGUAUCACUGCACUUCAGAAGGGACUUGAGGAUCACCCAAGUAGCCGUGAGGG [salish99_bmod_ex4_r4_003] (Eterna round: R97, puzzle: Brourd's mod of Exclusion 4)”, the “apparent KD of MS2 coat protein” value is, setting by setting: (input ligand: FMN 200 uM) 108 nM; (input ligand: none) 56.7 nM.

Turning to “AGUCCUGGAGUUAGGAUAUGGAGUAUCACUGCGCUUCAGAAGGGACUUGAGGAUCACCCAAGUAGCCGUGAGGG [salish99_bmod_ex4_r4_005] (Eterna round: R97, puzzle: Brourd's mod of Exclusion 4)”, the “apparent KD of MS2 coat protein” value is, setting by setting: (input ligand: FMN 200 uM) 98.5 nM; (input ligand: none) 59.4 nM.

For the sequence “AGUCCUGGAGUUAGGAUAUGGAGUAUCGCUGCGCUUCAGAAGGGACUUGAGGAUCACCCAAGUAGCCGUGAGGG [salish99_bmod_ex4_r4_006] (Eterna round: R97, puzzle: Brourd's mod of Exclusion 4)”, the “apparent KD of MS2 coat protein” value runs as follows: (input ligand: FMN 200 uM) 82.9 nM; (input ligand: none) 60.2 nM.

Take “AGUCGAAAGACCCACAUGGACAUGAGGAUCACCCAUGUACAAGCCUUUUGCUCGUCACUAUCGUCAAAAGACGAUAG [Omei Mir Offv1 A2] (Eterna round: R97, puzzle: Sensor, turn-off variant 1)”: the “apparent KD of MS2 coat protein” value was found to be 30.8 nM (input ligand: FMN 200 uM) and 41.8 nM (input ligand: none).

Regarding “AGUCGGCGAGGAUAUACAUGAGGAUCACCCAUGUGAGAGAUAAAAGUGAGUUAGACAAGUAGAAGGCGCUGACA [JL Lego Mod 9] (Eterna round: R96, puzzle: Exclusion 3)”, the “apparent KD of MS2 coat protein” value under setting [4] stood at 46.4 nM.

For “AGUCGGCGAGGAUAUACAUGAGGAUCACCCAUGUGAUAGAGUGCACGCGUACGUGUAUGUAGAAGGCGCUGACA [Mat - Exclusion 3 - Mod of JL D97] (puzzle: Exclusion 3)”, the “apparent KD of MS2 coat protein” value under setting [2] is 61.4 nM.

Consider “AGUCGGUCAGGAUAUGCAAUCGUGGACAUGAGGAUCACCCAUGUAACGUGGGCCUGGUUUGUAGAAGGGACGAGCA [EX5 #87] (Eterna round: R97, puzzle: Exclusion 5)”, for which the “apparent KD of MS2 coat protein” value was found to be 66 nM (input ligand: FMN 200 uM) and 61.2 nM (input ligand: none).

For “AGUCGGUCAGGAUAUGCAAUUGUGGACAUGAGGAUCACCCAUGUAACGUGGGCCUGGUUUGUAGAAGGGACGUGCA [EX5 #89] (Eterna round: R97, puzzle: Exclusion 5)”, the “apparent KD of MS2 coat protein” value by setting is: (input ligand: FMN 200 uM) 105 nM; (input ligand: none) 89 nM.

On to “AGUGCGUAUGUGAGGAUAUGCUGGUCCUUGGAUCGGCAGAAGGCACAUGAGGAUCACCCAUGUGGUGUCGUACA [salish99_Bmod_ex4_085] (puzzle: Brourd's mod of Exclusion 4)”, for which the “apparent KD of MS2 coat protein” value was 21.5 nM under setting [1], 257 nM under setting [2] and 263 nM under setting [3].

In the case of “AGUGUAGCAGGAUAUACAUGAGGAUCACCCAUGUUUCCGGGACCAGAGCAUCUGCCAUGUAGAAGGGCUGCCUU [Eternabot (L2) Solution 80] (Eterna round: R97, puzzle: Exclusion 3)”, the “apparent KD of MS2 coat protein” value runs as follows: (input ligand: FMN 200 uM) 275 nM; (input ligand: none) 225 nM.

For the sequence “AGUGUGAGGCAGGAUAUGCAAUAUGUAAGUAAUGCAGAAGGGUCUACAUGAGGAUCACCCAUGUGUGCGGUUGA [Ex6 #10] (Eterna round: R97, puzzle: Exclusion 6)”, the “apparent KD of MS2 coat protein” value runs as follows: (input ligand: FMN 200 uM) 282 nM; (input ligand: none) 192 nM.

Regarding “AGUGUGUGGCAGGAUAUUCUAAUCGUGAGGAGGGAAGAAGGGUCUACAUGAGGAUCACCCAUGUAAGCGGUUGA [Ex6 #42] (Eterna round: R97, puzzle: Exclusion 6)”, the “apparent KD of MS2 coat protein” value was determined as 259 nM (input ligand: FMN 200 uM) and 140 nM (input ligand: none).

Take “AGUGUGUGGCAGGAUAUUCUAAUGAUUAGGACAGAAGAAGGGUCUACAUGAGGAUCACCCAUGUAAGCGGUUGA [Ex6 #38] (Eterna round: R97, puzzle: Exclusion 6)”: the “apparent KD of MS2 coat protein” value is, setting by setting: (input ligand: FMN 200 uM) 211 nM; (input ligand: none) 82.3 nM.

For “AGUGUGUUAGGAUAUCGGAUAUGCUGGAGGAGGUGGAUUUACGAGAAGGAACAUGAGGAUCACCCAUGUAGGAG [JR_Exclu4_Sub048] (puzzle: Exclusion 4)”, the “apparent KD of MS2 coat protein” value under setting [2] was 36.2 nM.

As to “AGUUACUACAAGCUUUGGGACAUGAGGAUCACCCAUGUUCGUCUUAUUGUAGUAGGUACGCUGACGUACCUACUACA [Mat - Sensor v3 - turn-off var 1 - JL Mod - D7] (puzzle: Sensor v3, turn-off variant 1)”, the “apparent KD of MS2 coat protein” value under setting [1] was determined as 14.8 nM, the “apparent KD of MS2 coat protein” value under setting [2] was found to be 39.6 nM and the “apparent KD of MS2 coat protein” value under setting [3] amounted to 13.8 nM.

For “AGUUGGCAAGGAUAUACAUGAGGAUCACCCAUGUGAAAUUAUAGUGAGGAAAUGAAAAGUAGAAGGUGCUGACA [Mod of Mat 3 - Jieux - Exclusion 3] (Eterna round: R97, puzzle: Exclusion 3)”, the “apparent KD of MS2 coat protein” value runs as follows: (input ligand: FMN 200 uM) 114 nM; (input ligand: none) 30.9 nM.

With “AGUUGGCGAGGAUAUACAUGAGGAUCACCCAUGUGAAAUUAAAGUGAGGAAAUGAAAAGUAGAAGGCGCUGACA [Mat - Exclusion 3 - Mod of Salish D56] (puzzle: Exclusion 3)”, the “apparent KD of MS2 coat protein” value stood at 277 nM under setting [1], 31.7 nM under setting [2] and 46.7 nM under setting [3].

Regarding “AGUUGGCGAGGAUAUACAUGAGGAUCACCCAUGUGAAAUUAAAGUGAGGAAAUGAAAAGUAGAAGGCGCUGACA [Mod of Mat - Jieux - Exclusion 3] (Eterna round: R97, puzzle: Exclusion 3)”, the “apparent KD of MS2 coat protein” value by setting is: (input ligand: FMN 200 uM) 686 nM; (input ligand: none) 67.7 nM.

On to “AGUUGGCGAGGAUAUACAUGAGGAUCACCCAUGUGAAUAAUAAUAGUGAGGAAGAAAAGUAGAAGGCGCUGACA [Mat - Exclusion 3 - Mod of Salish D35] (puzzle: Exclusion 3)”, for which the “apparent KD of MS2 coat protein” value under setting [2] was found to be 46.1 nM.

For “AGUUGGCGAGGAUAUACAUGAGGAUCACCCAUGUGAGAGAGACUAGUGAGGUCGAUUAGUAGAAGGCGCUGACA [Mat X3R4 m11] (Eterna round: R97, puzzle: Exclusion 3)”, the “apparent KD of MS2 coat protein” value by setting is: (input ligand: FMN 200 uM) 455 nM; (input ligand: none) 29.3 nM.

As to “AGUUGGUCAGGAUAUUCUAUUAAUUACAUGAGGAUCACCCAUGUGAAUGGACAAGGGUGUGAAGAAGGGACUGGCG [Omei Ex5 A17c] (Eterna round: R97, puzzle: Exclusion 5)”, the “apparent KD of MS2 coat protein” value is 692 nM (input ligand: FMN 200 uM) and 1780 nM (input ligand: none).

“AGUUGUUGUUUCCGUUCUUACAUGAGGAUCACCCAUGUUUCUUGUCGUGCUCGCGUUGCUCGUCAGACUUCCUGUUG [salish99_TOv1_r3_066] (puzzle: Sensor v3, turn-off variant 1)”: the “apparent KD of MS2 coat protein” value by setting is: under setting [1], 77.3 nM; under setting [2], 93.1 nM; under setting [3], 121 nM.
